“And” between values parts separate entries of the source, which are not always exact repeats. Equal values may be shown once.

In the assay the target is Burkholderia pseudomallei Class 2 OLD protein, full-length (Bp^FL, residues 1-594) (Burkholderia pseudomallei). The assay is described as follows: SEC-MALS.

With “Burkholderia pseudomallei Class 2 OLD protein, full-length (Bp^FL, residues 1-594) (enzyme)”, the stoichiometry N was 2 and 4.

The values are drawn from PMC6755086.
